Reference: US20230399400A1 (I MAB BIOPHARMA, published 2023)

Tests used:
[1] = biological target: T1, biotinylated CD47 IgV protein (Acrobiosystems) (human, UniProt Q08722 19-139, biotinylated (site not stated)); test: ELISA, biotinylated CD47 protein (monomeric CD47-ECD) coated at 1 µg/mL, antibody titration
T1 construct: domain: IgV; Bought from Acrobiosystems; also called biotinylated human CD47-IgV domain; Biotinylated CD47 protein
Experimental: Biotinylated CD47 protein (Acrobiosystems) was coated at 1 μg/mL in PBS onto microtiter plates for 2 hours at RT. After coating of antigen, the wells were blocked with PBS/0.05% Tween (PBST) with 1% BSA for 1 hour at RT. After washing of the wells with PBST, different concentrations of anti-CD47 antibodies were added to the wells and incubated for 1 hour at RT. For detection of the binding of the antibodies to CD47, the HRP conjugated secondary antibodies against human Fc (Jackson Immuno Research) were added followed by the addition of fluorogenic substrates (Roche). Between all incubation steps, the wells of the plate were washed with PBST three times. Fluorescence was measured in a TECAN Spectrafluor plate reader.

[2] = biological target: T2, human CD47 (hCD47) expressed on the surface of cells (human, UniProt Q08722 19-323); test: Flow cytometry on Raji cells endogenously expressing human CD47
T2 construct: whole, on cells; also called CD47+ Raji cells; CD47 on tumor cell lines
Experimental: Raji cells, which endogenously express human CD47 on the surface, were stained with different concentrations of anti-CD47 antibodies at 4° C. for 30 minutes. Then, the cells were washed with PBS three times, followed by incubation with APC-labeled anti-human Fc specific antibody (Invitrogen) at 4° C. for 30 minutes. Binding was measured using a FACSCanto (Becton-Dickinson).

[3] = biological target: T3, Recombinant human CD47 IgV-Fc fusion protein (Acrobiosystems) (human, UniProt Q08722 19-139); test: Competition ELISA: CD47-Fc coated, SIRPα-His 1 µg/mL as the blocked ligand, antibody titration
T3 construct: domain: IgV; Bought from Acrobiosystems; also called hCD47 IgV-Fc fusion protein; Recombinant CD47-Fc fusion protein
Experimental: Recombinant CD47-Fc fusion protein (Acrobiosystems) was coated at 1 μg/ml in PBS onto microtiter plates for 16 hours at 4° C. […] Plates were subsequently washed three times and incubated with an HRP-conjugated anti-His secondary antibody for 1 hour at RT. After washing, the TMB solution was added to each well for 30 min and the reaction was stopped with 2M H₂SO₄, and OD was measured at […].

| Binder | EC50 [1] | EC50 [2] | EC50 [3] |
| --- | --- | --- | --- |
| reference anti-CD47 antibody 2A1 (antibody, V domains shown) VH: EVQLQQSGAELVRSGASVKLSCTASGFNIKDYYLHWVKQRPEQGLEWIGWIDPDNGDTEFAPKFQGKATMTADTSSNTAYLQLSSLTSEDTAVYYCNAAYGSSSYPMDYWGQGTSVTV VL: DIKMTQSPSSLYASLGERVTITCKASQDIHRYLSWFQQKPGKSPKILIYRANRLVDGVPSRFSGSGSGQDYSLTISSLEYEDMGIYYCLQYDEFPYTFGGGTKLEMK | 0.25 nM |  |  |
| anti-CD47 antibody B2B (antibody, human IgG4 S228P, kappa, V domains shown, also called lemzoparlimab; TJ011133) VH: EVQLVESGGGLVKPGGSLRLSCAASGLTFERAWMNWVRQAPGKGLEWVGRIKRKTDGETTDYAAPVKGRFSISRDDSKNTLYLQMNSLKTEDTAVYYCAGSNRAFDIWGQGTMVTVSS VL: DIVMTQSPDSLAVSLGERATINCKSSQSVLYAGNNRNYLAWYQQKPGQPPKLLINQASTRASGVPDRFSGSGSGTEFTLIISSLQAEDVAIYYCQQYYTPPLAFGGGTKLEIKR | 0.09 nM | 0.12 nM | 0.18 nM |
